{
  "source": "paper PMC4215226",
  "about": "“The Chlamydia Effector TarP Mimics the Mammalian Leucine-Aspartic Acid Motif of Paxillin to Subvert the Focal Adhesion Kinase during Invasion*” (The Journal of Biological Chemistry, 2014)",
  "target": "focal adhesion kinase (FAK) (human (endogenous in HeLa), UniProt Q05397 1-1052)",
  "sequence (Q05397 whole entry, the tested form may be a part)": "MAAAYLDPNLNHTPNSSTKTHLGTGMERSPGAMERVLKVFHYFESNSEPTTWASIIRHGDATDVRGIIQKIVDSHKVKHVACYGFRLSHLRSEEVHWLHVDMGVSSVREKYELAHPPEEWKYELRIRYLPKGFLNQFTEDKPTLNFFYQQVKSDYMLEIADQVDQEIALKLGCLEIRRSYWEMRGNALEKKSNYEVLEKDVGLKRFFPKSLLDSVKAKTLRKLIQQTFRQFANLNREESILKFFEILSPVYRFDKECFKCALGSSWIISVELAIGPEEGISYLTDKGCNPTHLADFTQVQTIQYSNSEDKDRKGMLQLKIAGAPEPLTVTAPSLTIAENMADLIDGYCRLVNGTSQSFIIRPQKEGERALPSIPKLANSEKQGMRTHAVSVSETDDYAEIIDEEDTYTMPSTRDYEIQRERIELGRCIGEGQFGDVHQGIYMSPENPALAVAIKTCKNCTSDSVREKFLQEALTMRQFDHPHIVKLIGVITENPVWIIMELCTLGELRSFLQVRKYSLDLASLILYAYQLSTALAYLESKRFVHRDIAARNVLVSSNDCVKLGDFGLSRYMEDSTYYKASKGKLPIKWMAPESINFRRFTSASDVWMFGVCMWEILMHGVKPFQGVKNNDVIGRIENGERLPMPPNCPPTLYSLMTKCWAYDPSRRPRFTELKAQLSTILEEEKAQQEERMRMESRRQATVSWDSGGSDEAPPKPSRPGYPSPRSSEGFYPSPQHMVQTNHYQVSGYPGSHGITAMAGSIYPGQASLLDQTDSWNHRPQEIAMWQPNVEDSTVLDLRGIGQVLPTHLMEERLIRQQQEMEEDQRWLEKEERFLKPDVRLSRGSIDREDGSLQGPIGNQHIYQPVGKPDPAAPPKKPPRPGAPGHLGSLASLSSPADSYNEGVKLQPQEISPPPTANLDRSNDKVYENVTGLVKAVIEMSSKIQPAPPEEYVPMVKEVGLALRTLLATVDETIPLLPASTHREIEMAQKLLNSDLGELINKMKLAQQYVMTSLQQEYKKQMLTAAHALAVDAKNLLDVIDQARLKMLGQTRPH",
  "test": "cell-based or functional assay",
  "data": [
    {"binder": "Cya18-Pax-LD2 (domain or fragment, UniProt P49024 125-186, looked up) KSAEPSPTMTSTSLGSNLSELDRLLLELNAVQHNPPSGFSADEVSRSPSLPNVTGPHYVIPE", "values": [
      {"measurement": "colocalisation of endogenous pY397-FAK with adhered Δtir EPEC in Cos7 cells expressing TirM-Pax-LD2, increase relative to the TirM-only negative control", "result": 2.4, "unit": "fold"}
    ]}
  ]
}
